Laboratory results as given in the supplement of paper PMC10065799, “High-throughput profiling of sequence recognition by tyrosine kinases and SH2 domains using bacterial peptide display” (eLife, 2023).

Each sequence was assayed on AncSZ (assay: phosphorylation enrichment, bacterial display (enrichment ratio); higher = better substrate or ligand; peptides without Tyr show the background).
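Further: 11-residue human phosphosite peptides and single-mutation variants displayed on the E. coli surface, counted by deep sequencing, each peptide's frequency after selection divided by its frequency in the unselected input library; frequency after pTyr selection over input frequency; kinase dosed for 20-30% of maximal phosphorylation in three min.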

Sequence	phosphorylation enrichment
TLNFFYQQVKS [PTK2_Y148]	1.15
YLGRNYLETLM [DUS3L_Y610_D609N]	0.859
TFSPPYFHRNC [HGD_Y333_R330S_YF]	1.81
FKDVTYLTEEK [UBE3A_Y127]	1.15
DPMNTYARPAE [SGMS2_Y24_T21M]	0.878
WKGSWYSMKKM [FGB_Y475_R478K]	0.736
WGLCSYFETSK [MAGED2_Y448_R446C_YF]	1.29
HCYNSYTYPRL [PAK7_Y316_S312C]	2.4
LENQTYFRSFE [AKAP9_Y2482_K2484R]	0.881
KMLEKYKEQLN [TLK2_Y259_R262Q]	0.721
VKPENYRRQDI [VHL_Y175_L178Q]	0.475
RTVDVYFGPQM [KIRREL3_Y332_R336Q]	1.51
ADCRFYAFPQM [GAMT_Y223_YF]	2.44
IGEGTYGTVFK [CDK5_Y15]	0.707
VVQGLYKSMRK [KBTBD2_Y250_P254R]	0.628
ETAVHYIHDGI [GATD3A_Y250_L248V]	0.631
SSEILYHIIKG [CDH17_Y489_K486E]	1.38
CTTIPYNFMCN [TP53_Y234_H233P_YF]	0.945
TAVNGYAFGGG [ECHS1_Y137_A132T]	0.558
SVVVPYEPPEA [TP53_Y220_V225A]	1.28
GVCKNYAEAKD [ALB_Y343_D338G]	0.749
MFFSKYDRDND [FGB_Y408_T407K]	0.817
PTATSYTPNLA [GABRA1_Y375]	0.568
TRRSSYEDSSL [HNF4A_Y144]	1.2
SLNAVYPRAGS [OAS3_Y376]	0.451
ISKQGYDEAGP [ACTC1_Y364_E363G]	0.897
ATHRGYDSDNP [MMUT_Y146]	0.586
MKMISYETLIA [DOCK10_Y1350_T1347M]	0.784
FGSRLYKYAFK [FANCD2_Y458_L456R]	0.593

These sequences were tested against EPHB1 (UniProt P54762) in the same assay as above.
EPHB1, sequence (P54762 whole entry, looked up): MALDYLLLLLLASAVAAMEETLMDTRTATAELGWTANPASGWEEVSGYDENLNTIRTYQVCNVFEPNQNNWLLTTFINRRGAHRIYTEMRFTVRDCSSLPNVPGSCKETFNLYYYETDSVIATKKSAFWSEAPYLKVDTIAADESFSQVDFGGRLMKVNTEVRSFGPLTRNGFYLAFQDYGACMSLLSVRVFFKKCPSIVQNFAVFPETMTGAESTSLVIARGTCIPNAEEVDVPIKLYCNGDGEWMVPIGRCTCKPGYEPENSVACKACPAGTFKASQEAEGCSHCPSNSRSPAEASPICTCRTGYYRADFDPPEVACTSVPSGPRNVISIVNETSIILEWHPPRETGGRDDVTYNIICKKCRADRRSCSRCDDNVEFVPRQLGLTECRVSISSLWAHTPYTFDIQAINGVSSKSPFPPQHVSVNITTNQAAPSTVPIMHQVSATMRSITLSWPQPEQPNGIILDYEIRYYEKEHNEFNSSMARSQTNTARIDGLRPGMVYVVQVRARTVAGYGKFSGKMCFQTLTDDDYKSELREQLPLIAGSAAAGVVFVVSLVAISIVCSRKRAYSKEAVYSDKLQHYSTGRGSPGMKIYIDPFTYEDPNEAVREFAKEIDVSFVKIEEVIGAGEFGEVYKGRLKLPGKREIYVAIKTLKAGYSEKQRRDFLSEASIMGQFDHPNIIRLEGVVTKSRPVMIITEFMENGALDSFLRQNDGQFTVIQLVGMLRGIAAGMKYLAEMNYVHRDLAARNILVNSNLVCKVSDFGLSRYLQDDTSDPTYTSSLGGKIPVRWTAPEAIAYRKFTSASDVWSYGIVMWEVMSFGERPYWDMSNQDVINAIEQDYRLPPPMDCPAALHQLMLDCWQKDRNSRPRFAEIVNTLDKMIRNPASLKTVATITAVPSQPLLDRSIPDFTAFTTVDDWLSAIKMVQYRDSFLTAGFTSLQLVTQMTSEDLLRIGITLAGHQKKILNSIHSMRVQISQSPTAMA

Sequence	phosphorylation enrichment
TLNFFYQQVKS [PTK2_Y148]	0.68
YLGRNYLETLM [DUS3L_Y610_D609N]	0.578
TFSPPYFHRNC [HGD_Y333_R330S_YF]	0.268
FKDVTYLTEEK [UBE3A_Y127]	0.618
DPMNTYARPAE [SGMS2_Y24_T21M]	0.381
WKGSWYSMKKM [FGB_Y475_R478K]	0.645
WGLCSYFETSK [MAGED2_Y448_R446C_YF]	0.671
HCYNSYTYPRL [PAK7_Y316_S312C]	0.775
LENQTYFRSFE [AKAP9_Y2482_K2484R]	0.487
KMLEKYKEQLN [TLK2_Y259_R262Q]	0.585
VKPENYRRQDI [VHL_Y175_L178Q]	0.274
RTVDVYFGPQM [KIRREL3_Y332_R336Q]	1.04
ADCRFYAFPQM [GAMT_Y223_YF]	3.25
IGEGTYGTVFK [CDK5_Y15]	0.989
VVQGLYKSMRK [KBTBD2_Y250_P254R]	0.397
ETAVHYIHDGI [GATD3A_Y250_L248V]	0.419
SSEILYHIIKG [CDH17_Y489_K486E]	0.806
CTTIPYNFMCN [TP53_Y234_H233P_YF]	0.449
TAVNGYAFGGG [ECHS1_Y137_A132T]	0.417
SVVVPYEPPEA [TP53_Y220_V225A]	0.61
GVCKNYAEAKD [ALB_Y343_D338G]	0.469
MFFSKYDRDND [FGB_Y408_T407K]	0.493
PTATSYTPNLA [GABRA1_Y375]	0.291
TRRSSYEDSSL [HNF4A_Y144]	0.379
SLNAVYPRAGS [OAS3_Y376]	0.306
ISKQGYDEAGP [ACTC1_Y364_E363G]	0.601
ATHRGYDSDNP [MMUT_Y146]	0.342
MKMISYETLIA [DOCK10_Y1350_T1347M]	0.659
FGSRLYKYAFK [FANCD2_Y458_L456R]	0.363

What follows are sequences tested against EPHB2 (UniProt P29323) in the same assay as above.
EPHB2, sequence (P29323 whole entry, looked up): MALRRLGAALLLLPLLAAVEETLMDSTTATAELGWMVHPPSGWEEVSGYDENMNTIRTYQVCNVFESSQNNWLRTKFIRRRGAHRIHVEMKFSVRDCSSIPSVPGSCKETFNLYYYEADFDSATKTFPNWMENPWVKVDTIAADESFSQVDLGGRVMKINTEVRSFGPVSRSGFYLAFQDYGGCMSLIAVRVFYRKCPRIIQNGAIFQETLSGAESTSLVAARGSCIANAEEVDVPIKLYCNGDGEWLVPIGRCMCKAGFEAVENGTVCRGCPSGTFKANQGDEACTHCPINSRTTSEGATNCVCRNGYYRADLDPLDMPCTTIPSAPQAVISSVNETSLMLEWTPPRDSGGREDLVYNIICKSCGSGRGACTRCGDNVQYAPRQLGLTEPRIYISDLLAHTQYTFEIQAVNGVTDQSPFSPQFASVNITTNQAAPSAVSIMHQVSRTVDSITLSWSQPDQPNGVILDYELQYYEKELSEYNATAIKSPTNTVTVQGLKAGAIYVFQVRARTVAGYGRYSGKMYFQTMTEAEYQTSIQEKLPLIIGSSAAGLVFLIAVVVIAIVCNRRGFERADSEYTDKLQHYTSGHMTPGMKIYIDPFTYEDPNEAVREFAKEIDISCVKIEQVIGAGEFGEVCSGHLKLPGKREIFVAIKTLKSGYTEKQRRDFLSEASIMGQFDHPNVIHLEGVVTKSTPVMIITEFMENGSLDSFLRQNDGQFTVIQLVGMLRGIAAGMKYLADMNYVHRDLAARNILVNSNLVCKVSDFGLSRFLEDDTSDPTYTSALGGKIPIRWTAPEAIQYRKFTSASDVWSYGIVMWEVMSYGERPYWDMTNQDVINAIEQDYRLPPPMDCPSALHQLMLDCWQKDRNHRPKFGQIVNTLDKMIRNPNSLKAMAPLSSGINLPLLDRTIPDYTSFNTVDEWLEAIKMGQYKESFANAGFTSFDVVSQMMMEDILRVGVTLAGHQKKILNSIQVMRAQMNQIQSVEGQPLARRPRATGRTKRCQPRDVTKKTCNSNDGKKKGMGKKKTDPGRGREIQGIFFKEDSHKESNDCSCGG

Sequence	phosphorylation enrichment
TLNFFYQQVKS [PTK2_Y148]	0.658
YLGRNYLETLM [DUS3L_Y610_D609N]	0.467
TFSPPYFHRNC [HGD_Y333_R330S_YF]	1.08
FKDVTYLTEEK [UBE3A_Y127]	0.691
DPMNTYARPAE [SGMS2_Y24_T21M]	0.476
WKGSWYSMKKM [FGB_Y475_R478K]	0.506
WGLCSYFETSK [MAGED2_Y448_R446C_YF]	0.633
HCYNSYTYPRL [PAK7_Y316_S312C]	0.784
LENQTYFRSFE [AKAP9_Y2482_K2484R]	0.811
KMLEKYKEQLN [TLK2_Y259_R262Q]	0.598
VKPENYRRQDI [VHL_Y175_L178Q]	0.367
RTVDVYFGPQM [KIRREL3_Y332_R336Q]	0.677
ADCRFYAFPQM [GAMT_Y223_YF]	3.79
IGEGTYGTVFK [CDK5_Y15]	2.08
VVQGLYKSMRK [KBTBD2_Y250_P254R]	0.432
ETAVHYIHDGI [GATD3A_Y250_L248V]	0.43
SSEILYHIIKG [CDH17_Y489_K486E]	0.684
CTTIPYNFMCN [TP53_Y234_H233P_YF]	0.514
TAVNGYAFGGG [ECHS1_Y137_A132T]	0.531
SVVVPYEPPEA [TP53_Y220_V225A]	0.536
GVCKNYAEAKD [ALB_Y343_D338G]	0.511
MFFSKYDRDND [FGB_Y408_T407K]	0.488
PTATSYTPNLA [GABRA1_Y375]	0.314
TRRSSYEDSSL [HNF4A_Y144]	0.529
SLNAVYPRAGS [OAS3_Y376]	0.323
ISKQGYDEAGP [ACTC1_Y364_E363G]	0.532
ATHRGYDSDNP [MMUT_Y146]	0.444
MKMISYETLIA [DOCK10_Y1350_T1347M]	0.566
FGSRLYKYAFK [FANCD2_Y458_L456R]	0.429

What follows are sequences tested against FGFR1 (UniProt P11362) in the same assay as above.
FGFR1, sequence (P11362 whole entry, looked up): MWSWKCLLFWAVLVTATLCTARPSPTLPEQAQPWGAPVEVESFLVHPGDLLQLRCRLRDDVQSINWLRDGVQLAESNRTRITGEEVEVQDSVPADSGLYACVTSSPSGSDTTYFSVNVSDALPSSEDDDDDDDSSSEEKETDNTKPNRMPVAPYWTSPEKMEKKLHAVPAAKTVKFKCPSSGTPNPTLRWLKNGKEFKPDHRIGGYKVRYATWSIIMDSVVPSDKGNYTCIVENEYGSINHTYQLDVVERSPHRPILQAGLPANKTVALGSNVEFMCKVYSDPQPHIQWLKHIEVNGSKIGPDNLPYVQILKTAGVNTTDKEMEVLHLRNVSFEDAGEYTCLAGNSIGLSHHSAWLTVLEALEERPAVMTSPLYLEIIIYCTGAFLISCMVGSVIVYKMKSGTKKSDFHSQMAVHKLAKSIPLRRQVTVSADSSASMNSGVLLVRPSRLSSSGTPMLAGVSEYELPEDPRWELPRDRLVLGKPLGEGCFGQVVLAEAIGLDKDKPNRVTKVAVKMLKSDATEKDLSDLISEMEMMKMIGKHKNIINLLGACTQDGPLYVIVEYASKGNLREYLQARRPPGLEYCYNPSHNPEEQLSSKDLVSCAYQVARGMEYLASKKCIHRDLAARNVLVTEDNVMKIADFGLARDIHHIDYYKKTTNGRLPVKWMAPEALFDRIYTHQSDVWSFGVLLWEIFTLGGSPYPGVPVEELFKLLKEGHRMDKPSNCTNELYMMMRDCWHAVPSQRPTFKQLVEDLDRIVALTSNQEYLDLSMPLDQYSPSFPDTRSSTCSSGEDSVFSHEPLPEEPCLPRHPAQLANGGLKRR

Sequence	phosphorylation enrichment
TLNFFYQQVKS [PTK2_Y148]	0.471
YLGRNYLETLM [DUS3L_Y610_D609N]	0.85
TFSPPYFHRNC [HGD_Y333_R330S_YF]	0.535
FKDVTYLTEEK [UBE3A_Y127]	0.524
DPMNTYARPAE [SGMS2_Y24_T21M]	0.475
WKGSWYSMKKM [FGB_Y475_R478K]	0.488
WGLCSYFETSK [MAGED2_Y448_R446C_YF]	0.768
HCYNSYTYPRL [PAK7_Y316_S312C]	1.35
LENQTYFRSFE [AKAP9_Y2482_K2484R]	0.571
KMLEKYKEQLN [TLK2_Y259_R262Q]	0.604
VKPENYRRQDI [VHL_Y175_L178Q]	0.343
RTVDVYFGPQM [KIRREL3_Y332_R336Q]	0.824
ADCRFYAFPQM [GAMT_Y223_YF]	0.719
IGEGTYGTVFK [CDK5_Y15]	0.515
VVQGLYKSMRK [KBTBD2_Y250_P254R]	0.403
ETAVHYIHDGI [GATD3A_Y250_L248V]	0.445
SSEILYHIIKG [CDH17_Y489_K486E]	10.9
CTTIPYNFMCN [TP53_Y234_H233P_YF]	0.515
TAVNGYAFGGG [ECHS1_Y137_A132T]	0.404
SVVVPYEPPEA [TP53_Y220_V225A]	0.496
GVCKNYAEAKD [ALB_Y343_D338G]	0.551
MFFSKYDRDND [FGB_Y408_T407K]	0.47
PTATSYTPNLA [GABRA1_Y375]	0.459
TRRSSYEDSSL [HNF4A_Y144]	0.42
SLNAVYPRAGS [OAS3_Y376]	0.384
ISKQGYDEAGP [ACTC1_Y364_E363G]	0.539
ATHRGYDSDNP [MMUT_Y146]	0.377
MKMISYETLIA [DOCK10_Y1350_T1347M]	0.634
FGSRLYKYAFK [FANCD2_Y458_L456R]	0.344
